Test results reported in a protein production outcome set (Wang et al. 2014).

Experiment: label from the status in PepcDB records

Sequence: MQLPPIPDNELQRLSTLKALNILDTNAEERFDRITRLTRRIFALPICVVTLVDASRQWFKSCQGLEVTETSRDISFCGHAINHDGIFIVNDAQMDPRFHDNPLVTQSPHIRFYAGYPLTIRGEYRVGTLCLIGNEPREFSADDIETLTDLGQMVEAELLSISLNTLDPLTMISNRRGFEQLAFQSLASCRRTNSQAALVFFDLDFFKELNDSFGHRKGDQVLYDFAHLLMAAFRESDVIARLGGDEFVVLLSFVKIDAVHVAIERFQSLLEQYNQQHPQQPTLVSSIGVAHWSPELDINLEDLLDAADRAMYQDKAEHHLNKPE
- protein production: failed

Sequence: MGFLDALMGNASEVDLGKLAAELSPILGDNEELQLAYKMVRDLFVFTSKRLILIDKQGVTGKKVSYHSIPYKAIVHFQVETAGTFDMDAELKLWISGQHEPLVKELKRGTDVVGIQKTIARYALG
- protein production: not failed

Sequence: MFRIIQPHRWKLAVLMIAANLGLLAFLAFGTIKHVSEWQWLDIVGEGGSALLSLVWLFLVFKSRPAGRVTNYLSVGLSCVFFSWWIDALDEFIRLPAEIEWDHWLESGPMPVGLILLTLGIYHWHREQLAISAQMEKRERGFREHRLYDKLTPLGSADYLKRQLIVSLEQSLCQQQPLSLLALDLDGFSTINNAFGHAEGDEVLSAISHLLVLNLRRQDLLCRLAGDRFVVLMPNTGESQAKLLALELQQAVASLAHKTRQQGERLHLSASVAVVMALNETPDNLLRRLNLSLARARRPLTRTA
- protein production: failed

Sequence: METVFALCAIMLLAFNLLGIVLAGWRLTRRDAENDLVRQKPPVSLVVPLRGVENFTPLTLSRAFGLDWPDYELLFCVADEFDPVIAEVRKAAAAFPSVSMQLLIGDDRVSANPKLNNCVKGWRAAKYEWVILADSNVLMPKSYIATMMSAWRPDSGLVCSPPLGSRPVGFWANVECAFLNGSQGRWQYAAEAIGIGFAQGKSMLWNKPFLEDRGGIRALAAEIAEDAASTKLVRSAGRKVHLVSAPFEQPLGQRHAGEIWSRQTRWARLRRVTFPQYFAPEILTGALPPLLFALAATAMMDVNLAATASVVLALMFGPELALAALNGWPVSLYTLPAMIARDLIMPVVWARSWIGSAVAWRGNVMTIGTAESTLAGPPAE
- protein production: failed

Sequence: MDKKVEKIQEKVRLFYKKHQRNTTIVVVISLSMILILGMAAWYEGKGISYEAKQTALREKQHALQKKRDDILAGKMTEASTQTTINNFSKQEITGENELVTITGTNGQLNINDANIYVSDNAGIVSNQLKQKMFQLNQQLLENANGAQFMLITVPALPSGESVESYSNKIANQLGVGDREKNNGVVFLMAIEDRESRLEVGYGLESILTDSYADDIINNEEVKEAFRDEDYNTGLNKIIDQVSAAINSKTAQVDNELTNIQTELNTNTTKRNVLLMASIAGMLICAVYILQILRTRKLVKKMYQDYLNCLPTKAVLNNSEQTKKVLNKMKKTSFYCLYLNGATLFATKGKIRRATKRGSLLSIYPNAKKQSFGRLLVGDTLYSYDGSVLTYAYLNSQYNPSNHSSSGSGSGGSFGGGSFGGGGASGSWLEHHHHHH
- protein production: not failed

Sequence: MNNKQLDFTEGSITKKMVVFSWPIFLSNLLQTSYQITDSLWVGNLLGASALGALSISATVVFMVLSFIIGLNGATLTVLSQRQGAKDEAGLKASLNAFVFVLGLLAILLGLIGYFSASSILQLLGTPEEILPLAESYLKINFIGILFLFGYNFIGTVLRAMGDSRSPVRFIFIAVILNIILDPLMIAGFNLGIDGAAYATIVSQGTAFIYGLIYSVRKAGVPFQIPYVPEKRYFFVLFKLGLPAGLSMITISAGVTAILSVVTSFGEEAVAGFGAAQRLDSLIMLPALTLGSAVNTIAGQNIGANKWERVRATAKQGVMLIIAVTLIIGLITFIGAQFFIRLFVRDEATVAFGAMYIQTIAFFYPFLGINFVLNGIVRASGAMFPVLLLNIISFWILRYPLTYWMSDLFGERGIALGMGFAFVVSSLIATGYYFLGNWRKVGEELAQKTGHSKV
- protein production: failed

Sequence: MMSAQRVVRTVRTARAISTALAVAIVLGTGVAWSSVRSFEDGIFHMSAPSLGHGGDDGAIDILLVGLDSRTDAHGNPLSAEELATLHAGDEEATNTDTIILIRVPNNGKSATAISIPRDSYVAAPGLGKTKINGVYGQTRETKRAGLVQAGASPTEAAAAGTEAGREALIKTVADLTGVTVDHYAEIGLLGFALIADALGGVDVCLKEPVYEPLSGADFPAGRQKLNGPQALSFVRQRHDLPRGDLDRVVRQQAVMAALAHRVISGQTLSSPATLKRLEQAVQRSVVLSSGWDIMDFVRQLQKLAGGNVAFATIPVLDGAGWSDDGMQSVVRVDPRQVQDWVVGLLHEQDQGKTDELAYTPAKTTANVVNDTDINGLAAAVSKVLSSKGFTTGSVGNNDGDHVPGSQVRAAKADDLGAQQVAKELGGLPVVADASIAPGSVRVVLANDYSGPGSGLGGSDPNGVVSPARAFNLGSADDTTPPPSPILTAGSDAPECIN
- protein production: failed

Sequence: MVNVDHDRFTTLVHELNQAKYEFHYKCAELVSNHEAAQPKKVLDEKKMDLEKLYEKVKEVMKKMVAFAENPKKEG
- protein production: failed

Sequence: MEQLVSMGFSSDLAAEALTATGGDSIQKATDWILSHRSSPQSTATLQPKLDRFLRLHPKALAPAMGDDSSKRPNPKTQIHVAADDSNKRHKLSSSSHRQHQPLSERMRPRTLDDVVGQDHLLSPSSLLRSAVESNRLPSIVFWGPPGTGKTSIAKSLINSSKDPSLYRFVSLSAVTSGVKDVRDAVESAKRLNLEGRKRTVLFMDEVHRFNKSQQDTFLPVIEDGSILFIGATTENPSFHLITPLLSRCRVLTLNPLKPNHVETLLRRAVDDSERGLPNSVEVDDSVIEFLANNCDGDARVALNALEISATMATTRAGTDAVVSIDDAKEALQCKHLAYDKAGEQHYNLISALHKSMRGGDANAAIYWLARMLEGGEEPLYIARRLIRFASEDIGLADPSALTQAVACYQASHFLGMPECNVILAQCTAYLALAPKSIAVYRAIGAAQKVVKDSVGQNEGVPLHLRNAPTKLMKELGYGKEYIYPPSDPSSAAGQTYLPPSLLHHKFLEWPEGASGDFQDQEHRL
- protein production: failed

Sequence: MAKPVLVRNTEEMMMNLDFPTYIKVAELGCSSGQNSFLAIFEIINTINVLCQHVNKNSPEIDCCLNDLPENDFNTTFKFVPFFNKELMITNKSSCFVYGAPGSFYSRLFSRNSLHLIHSSYALHWLSKVPEKLENNKGNLYITSSSPQSAYKAYLNQFQKDFTMFLRLRSEEIVSNGRMVLTFIGRNTLNDPLYRDCCHFWTLLSNSLRDLVFEGLVSESKLDAFNMPFYDPNVQELKEVIQKEGSFEINELESHGFDLGHYYEEDDFEAGRNEANGIRAVSEPMLIAHFGEEIIDTLFDKYAYHVTQHANCRNKTTVSLVVSLTKK
- protein production: failed
